From CN115073593A (SHANGHAI JUNSHI BIOSCIENCES CO LTD; JUNMENG BIOSCIENCES CO …, dated 2022)

B1: CB6-15 (重链突变库克隆) (Fab)
VH: EVQLVESGGGLVQPGGSLRLSCAASGFQVNRNYMSWVRQAPGKGLEWVSVIYPGGSTFYADSVKGRFTISRDNSMNTLFLQMNSLRAEDTAVYYCARVLPMYGDYLDYWGQGTLVTVSS
light: […]
notes: also called CB6-15-VH; CB6-15-HC
B2: CB6-30 (轻链突变库克隆) (Fab, V domains shown)
VH: EVQLVESGGGLVQPGGSLRLSCAASGFTVSSNYMSWVRQAPGKGLEWVSVIYSGGSTFYADSVKGRFTISRDNSMNTLFLQMNSLRAEDTAVYYCARVLPMYGDYLDYWGQGTLVTVSS
VL: DIVMTQSPSSLSASVGDRVTITCRASQWILPYLNWYQQKPGKAPKLLIYAASSLQSGVPSRFSGSGSGTDFTLTISSLQPEDFATYYCQQSSSSTPEYTFGQGTKLEIK
notes: also called CB6-30-VL; CB6-30-LC
B3: CB6-26 (轻链突变库克隆) (Fab, V domains shown)
VH: EVQLVESGGGLVQPGGSLRLSCAASGFTVSSNYMSWVRQAPGKGLEWVSVIYSGGSTFYADSVKGRFTISRDNSMNTLFLQMNSLRAEDTAVYYCARVLPMYGDYLDYWGQGTLVTVSS
VL: DIVMTQSPSSLSASVGDRVTITCRASQRIEQYLNWYQQKPGKAPKLLIYAASSLQSGVPSRFSGSGSGTDFTLTISSLQPEDFATYYCQQSASSSPEYTFGQGTKLEIK
notes: also called CB6-26-VL; CB6-26-LC
B4: CB6-35 (轻链突变库克隆) (Fab, V domains shown)
VH: EVQLVESGGGLVQPGGSLRLSCAASGFTVSSNYMSWVRQAPGKGLEWVSVIYSGGSTFYADSVKGRFTISRDNSMNTLFLQMNSLRAEDTAVYYCARVLPMYGDYLDYWGQGTLVTVSS
VL: DIVMTQSPSSLSASVGDRVTITCRASQKIHQYLNWYQQKPGKAPKLLIYAASSLQSGVPSRFSGSGSGTDFTLTISSLQPEDFATYYCQQSESSKPEYTFGQGTKLEIK
notes: also called CB6-35-VL; CB6-35-LC
B5: CB6-17 (轻链突变库克隆) (Fab, V domains shown)
VH: EVQLVESGGGLVQPGGSLRLSCAASGFTVSSNYMSWVRQAPGKGLEWVSVIYSGGSTFYADSVKGRFTISRDNSMNTLFLQMNSLRAEDTAVYYCARVLPMYGDYLDYWGQGTLVTVSS
VL: DIVMTQSPSSLSASVGDRVTITCRASQVINHYLNWYQQKPGKAPKLLIYAASSLQSGVPSRFSGSGSGTDFTLTISSLQPEDFATYYCQQSGSPTPEYTFGQGTKLEIK
notes: also called CB6-17-VL; CB6-17-LC
B6: CB6-20 (轻链突变库克隆) (Fab, V domains shown)
VH: EVQLVESGGGLVQPGGSLRLSCAASGFTVSSNYMSWVRQAPGKGLEWVSVIYSGGSTFYADSVKGRFTISRDNSMNTLFLQMNSLRAEDTAVYYCARVLPMYGDYLDYWGQGTLVTVSS
VL: DIVMTQSPSSLSASVGDRVTITCRASQAILPYLNWYQQKPGKAPKLLIYAASSLQSGVPSRFSGSGSGTDFTLTISSLQPEDFATYYCQQSYSIIPEYTFGQGTKLEIK
notes: also called CB6-20-VL; CB6-20-LC
B7: CB6-22 (轻链突变库克隆) (Fab, V domains shown)
VH: EVQLVESGGGLVQPGGSLRLSCAASGFTVSSNYMSWVRQAPGKGLEWVSVIYSGGSTFYADSVKGRFTISRDNSMNTLFLQMNSLRAEDTAVYYCARVLPMYGDYLDYWGQGTLVTVSS
VL: DIVMTQSPSSLSASVGDRVTITCRASQRILPYLNWYQQKPGKAPKLLIYAASSLQSGVPSRFSGSGSGTDFTLTISSLQPEDFATYYCQQSSSATPEYTFGQGTKLEIK
notes: also called CB6-22-VL; CB6-22-LC
B8: CB6-31 (轻链突变库克隆) (Fab, V domains shown)
VH: EVQLVESGGGLVQPGGSLRLSCAASGFTVSSNYMSWVRQAPGKGLEWVSVIYSGGSTFYADSVKGRFTISRDNSMNTLFLQMNSLRAEDTAVYYCARVLPMYGDYLDYWGQGTLVTVSS
VL: DIVMTQSPSSLSASVGDRVTITCRASQQIRQYLNWYQQKPGKAPKLLIYAASSLQSGVPSRFSGSGSGTDFTLTISSLQPEDFATYYCQQSSSPTPEYTFGQGTKLEIK
notes: also called CB6-31-VL; CB6-31-LC
B9: CB6-21 (轻链突变库克隆) (Fab, V domains shown)
VH: EVQLVESGGGLVQPGGSLRLSCAASGFTVSSNYMSWVRQAPGKGLEWVSVIYSGGSTFYADSVKGRFTISRDNSMNTLFLQMNSLRAEDTAVYYCARVLPMYGDYLDYWGQGTLVTVSS
VL: DIVMTQSPSSLSASVGDRVTITCRASQWIGNYLNWYQQKPGKAPKLLIYAASSLQSGVPSRFSGSGSGTDFTLTISSLQPEDFATYYCQQSTSNRPEYTFGQGTKLEIK
notes: also called CB6-21-VL; CB6-21-LC
B10: CB6-28 (轻链突变库克隆) (Fab, V domains shown)
VH: EVQLVESGGGLVQPGGSLRLSCAASGFTVSSNYMSWVRQAPGKGLEWVSVIYSGGSTFYADSVKGRFTISRDNSMNTLFLQMNSLRAEDTAVYYCARVLPMYGDYLDYWGQGTLVTVSS
VL: DIVMTQSPSSLSASVGDRVTITCRASQDIVSYLNWYQQKPGKAPKLLIYAASSLQSGVPSRFSGSGSGTDFTLTISSLQPEDFATYYCQQSASPTPEYTFGQGTKLEIK
notes: also called CB6-28-VL; CB6-28-LC
B11: CB6-36 (轻链突变库克隆) (Fab, V domains shown)
VH: EVQLVESGGGLVQPGGSLRLSCAASGFTVSSNYMSWVRQAPGKGLEWVSVIYSGGSTFYADSVKGRFTISRDNSMNTLFLQMNSLRAEDTAVYYCARVLPMYGDYLDYWGQGTLVTVSS
VL: DIVMTQSPSSLSASVGDRVTITCRASQAILPYLNWYQQKPGKAPKLLIYAASSLQSGVPSRFSGSGSGTDFTLTISSLQPEDFATYYCQQSSSALPEYTFGQGTKLEIK
notes: also called CB6-36-VL; CB6-36-LC
B12: CB6-32 (轻链突变库克隆) (Fab, V domains shown)
VH: EVQLVESGGGLVQPGGSLRLSCAASGFTVSSNYMSWVRQAPGKGLEWVSVIYSGGSTFYADSVKGRFTISRDNSMNTLFLQMNSLRAEDTAVYYCARVLPMYGDYLDYWGQGTLVTVSS
VL: DIVMTQSPSSLSASVGDRVTITCRASQDIDGYLNWYQQKPGKAPKLLIYAASSLQSGVPSRFSGSGSGTDFTLTISSLQPEDFATYYCQQSASPVPEYTFGQGTKLEIK
notes: also called CB6-32-VL; CB6-32-LC
B13: CB6-23 (轻链突变库克隆) (Fab, V domains shown)
VH: EVQLVESGGGLVQPGGSLRLSCAASGFTVSSNYMSWVRQAPGKGLEWVSVIYSGGSTFYADSVKGRFTISRDNSMNTLFLQMNSLRAEDTAVYYCARVLPMYGDYLDYWGQGTLVTVSS
VL: DIVMTQSPSSLSASVGDRVTITCRASQWIPSYLNWYQQKPGKAPKLLIYAASSLQSGVPSRFSGSGSGTDFTLTISSLQPEDFATYYCQQSKSWKPEYTFGQGTKLEIK
notes: also called CB6-23-VL; CB6-23-LC
B14: CB6-24 (轻链突变库克隆) (Fab, V domains shown)
VH: EVQLVESGGGLVQPGGSLRLSCAASGFTVSSNYMSWVRQAPGKGLEWVSVIYSGGSTFYADSVKGRFTISRDNSMNTLFLQMNSLRAEDTAVYYCARVLPMYGDYLDYWGQGTLVTVSS
VL: DIVMTQSPSSLSASVGDRVTITCRASQQISRYLNWYQQKPGKAPKLLIYAASSLQSGVPSRFSGSGSGTDFTLTISSLQPEDFATYYCQQSSSPTPEYTFGQGTKLEIK
notes: also called CB6-24-VL; CB6-24-LC
B15: CB6-33 (轻链突变库克隆) (Fab, V domains shown)
VH: EVQLVESGGGLVQPGGSLRLSCAASGFTVSSNYMSWVRQAPGKGLEWVSVIYSGGSTFYADSVKGRFTISRDNSMNTLFLQMNSLRAEDTAVYYCARVLPMYGDYLDYWGQGTLVTVSS
VL: DIVMTQSPSSLSASVGDRVTITCRASQNILPYLNWYQQKPGKAPKLLIYAASSLQSGVPSRFSGSGSGTDFTLTISSLQPEDFATYYCQQSSSAVPEYTFGQGTKLEIK
notes: also called CB6-33-VL; CB6-33-LC
B16: CB6-29 (轻链突变库克隆) (Fab, V domains shown)
VH: EVQLVESGGGLVQPGGSLRLSCAASGFTVSSNYMSWVRQAPGKGLEWVSVIYSGGSTFYADSVKGRFTISRDNSMNTLFLQMNSLRAEDTAVYYCARVLPMYGDYLDYWGQGTLVTVSS
VL: DIVMTQSPSSLSASVGDRVTITCRASQMILPYLNWYQQKPGKAPKLLIYAASSLQSGVPSRFSGSGSGTDFTLTISSLQPEDFATYYCQQSSSAKPEYTFGQGTKLEIK
notes: also called CB6-29-VL; CB6-29-LC
B17: CB6-19 (轻链突变库克隆) (Fab, V domains shown)
VH: EVQLVESGGGLVQPGGSLRLSCAASGFTVSSNYMSWVRQAPGKGLEWVSVIYSGGSTFYADSVKGRFTISRDNSMNTLFLQMNSLRAEDTAVYYCARVLPMYGDYLDYWGQGTLVTVSS
VL: DIVMTQSPSSLSASVGDRVTITCRASQQINFYLNWYQQKPGKAPKLLIYAASSLQSGVPSRFSGSGSGTDFTLTISSLQPEDFATYYCQQSGSSLPEYTFGQGTKLEIK
notes: also called CB6-19-VL; CB6-19-LC
B18: CB6-37 (轻链突变库克隆) (Fab, V domains shown)
VH: EVQLVESGGGLVQPGGSLRLSCAASGFTVSSNYMSWVRQAPGKGLEWVSVIYSGGSTFYADSVKGRFTISRDNSMNTLFLQMNSLRAEDTAVYYCARVLPMYGDYLDYWGQGTLVTVSS
VL: DIVMTQSPSSLSASVGDRVTITCRASQMILPYLNWYQQKPGKAPKLLIYAASSLQSGVPSRFSGSGSGTDFTLTISSLQPEDFATYYCQQSSSATPEYTFGQGTKLEIK
notes: also called CB6-37-VL; CB6-37-LC
B19: CB6-25 (轻链突变库克隆) (Fab, V domains shown)
VH: EVQLVESGGGLVQPGGSLRLSCAASGFTVSSNYMSWVRQAPGKGLEWVSVIYSGGSTFYADSVKGRFTISRDNSMNTLFLQMNSLRAEDTAVYYCARVLPMYGDYLDYWGQGTLVTVSS
VL: DIVMTQSPSSLSASVGDRVTITCRASQNIMQYLNWYQQKPGKAPKLLIYAASSLQSGVPSRFSGSGSGTDFTLTISSLQPEDFATYYCQQSSSPKPEYTFGQGTKLEIK
notes: also called CB6-25-VL; CB6-25-LC
B20: CB6-34 (轻链突变库克隆) (Fab, V domains shown)
VH: EVQLVESGGGLVQPGGSLRLSCAASGFTVSSNYMSWVRQAPGKGLEWVSVIYSGGSTFYADSVKGRFTISRDNSMNTLFLQMNSLRAEDTAVYYCARVLPMYGDYLDYWGQGTLVTVSS
VL: DIVMTQSPSSLSASVGDRVTITCRASQSILQYLNWYQQKPGKAPKLLIYAASSLQSGVPSRFSGSGSGTDFTLTISSLQPEDFATYYCQQSSSPVPEYTFGQGTKLEIK
notes: also called CB6-34-VL; CB6-34-LC
B21: CB6-27 (轻链突变库克隆) (Fab, V domains shown)
VH: EVQLVESGGGLVQPGGSLRLSCAASGFTVSSNYMSWVRQAPGKGLEWVSVIYSGGSTFYADSVKGRFTISRDNSMNTLFLQMNSLRAEDTAVYYCARVLPMYGDYLDYWGQGTLVTVSS
VL: DIVMTQSPSSLSASVGDRVTITCRASQSILPYLNWYQQKPGKAPKLLIYAASSLQSGVPSRFSGSGSGTDFTLTISSLQPEDFATYYCQQSNSPRPEYTFGQGTKLEIK
notes: also called CB6-27-VL; CB6-27-LC
B22: CB6-18 (轻链突变库克隆) (Fab, V domains shown)
VH: EVQLVESGGGLVQPGGSLRLSCAASGFTVSSNYMSWVRQAPGKGLEWVSVIYSGGSTFYADSVKGRFTISRDNSMNTLFLQMNSLRAEDTAVYYCARVLPMYGDYLDYWGQGTLVTVSS
VL: DIVMTQSPSSLSASVGDRVTITCRASQDIHVYLNWYQQKPGKAPKLLIYAASSLQSGVPSRFSGSGSGTDFTLTISSLQPEDFATYYCQQSGSPVPEYTFGQGTKLEIK
notes: also called CB6-18-VL; CB6-18-LC

molecular target: 生物素化的SARS-CoV-2 RBD (SARS-CoV-2, UniProt P0DTC2 319-541); assay: ELISA screen, Fab culture supernatant on streptavidin-captured biotinylated RBD

Binder | binding result
B1 | binds
B2 | binds
B3 | binds
B4 | binds
B5 | binds
B6 | binds
B7 | binds
B8 | binds
B9 | binds
B10 | binds
B11 | binds
B12 | binds
B13 | binds
B14 | binds
B15 | binds
B16 | binds
B17 | binds
B18 | binds
B19 | binds
B20 | binds
B21 | binds
B22 | binds
